In US20250019439A1 (Adimab, published 2025):

Assays:
[1] = target: T1, ADI-26943; experiment: SPR Carterra avidity, yeast anti-ID, *koff limit
T1 construct: anti-CD3 antibody made in CHO cells, captured by anti-human Fc
Outline: (§1)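 Goat anti-human Fc was amine-coupled to an HC30M sensor chip, then anti-CD3 antibodies at 100 nM were flowed over discrete spots for 5 min. Anti-idiotype antibodies were run in non-regenerative kinetic cycles at 25° C in HBSTE, with 300s dissociation. Blank-subtracted sensorgrams were fitted 1:1.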

[2] = target: T2, ADI-67445; experiment: SPR Carterra avidity, yeast anti-ID, *koff limit
T2 construct: anti-CD3 antibody made in CHO cells, captured by anti-human Fc
T2 sequence (VH, as listed by the source limits assumed, chain 1 of 2): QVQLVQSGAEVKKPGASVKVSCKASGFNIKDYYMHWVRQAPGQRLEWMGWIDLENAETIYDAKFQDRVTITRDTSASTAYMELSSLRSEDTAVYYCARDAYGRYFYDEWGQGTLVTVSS
T2 sequence (VL, as listed by the source limits assumed, chain 2 of 2): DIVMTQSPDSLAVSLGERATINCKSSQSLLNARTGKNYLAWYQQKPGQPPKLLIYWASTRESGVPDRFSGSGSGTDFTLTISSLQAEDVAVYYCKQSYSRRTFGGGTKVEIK
Outline: as §1

[3] = target: T3, ADI-67447; experiment: SPR Carterra avidity, yeast anti-ID, *koff limit
T3 construct: anti-CD3 antibody made in CHO cells, captured by anti-human Fc
Outline: as §1

[4] = target: T4, ADI-26924; experiment: SPR Carterra avidity, yeast anti-ID, *koff limit
T4 construct: anti-CD3 antibody made in CHO cells, captured by anti-human Fc
Outline: as §1

[5] = target: T5, ADI-76362; experiment: SPR Carterra avidity, yeast anti-ID, *koff limit
T5 construct: anti-CD3 antibody made in CHO cells, captured by anti-human Fc
T5 sequence (VH, as listed by the source, chain 1 of 2): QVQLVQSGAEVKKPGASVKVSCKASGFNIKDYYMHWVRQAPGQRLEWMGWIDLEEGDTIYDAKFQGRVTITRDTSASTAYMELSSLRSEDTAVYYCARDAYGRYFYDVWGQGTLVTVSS
T5 sequence (VL, as listed by the source, chain 2 of 2): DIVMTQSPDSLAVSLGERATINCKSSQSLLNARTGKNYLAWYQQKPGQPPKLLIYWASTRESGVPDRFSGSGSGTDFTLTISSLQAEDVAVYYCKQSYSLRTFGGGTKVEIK
Outline: as §1

[6] = target: T6, ADI-74966; experiment: SPR Carterra avidity, yeast anti-ID, *koff limit
T6 construct: pH-dependent anti-CD3 antibody made in CHO cells
Outline: as §1

[7] = target: T7, ADI-76359; experiment: SPR Carterra avidity, yeast anti-ID, *koff limit
T7 construct: anti-CD3 antibody made in CHO cells, captured by anti-human Fc
T7 sequence (VH, as listed by the source, chain 1 of 2): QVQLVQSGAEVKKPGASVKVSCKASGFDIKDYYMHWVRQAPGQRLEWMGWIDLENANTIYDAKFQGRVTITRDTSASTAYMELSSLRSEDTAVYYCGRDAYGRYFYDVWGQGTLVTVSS
Outline: as §1

[8] = target: T8, ADI-26913 IgG; experiment: SPR Carterra avidity, yeast anti-ID, *koff limit
T8 construct: anti-CD3 IgG
Outline: as §1

[9] = target: T9, ADI-26920 IgG; experiment: SPR Carterra avidity, yeast anti-ID, *koff limit
T9 construct: anti-CD3 IgG
T9 sequence (VH, as listed by the source limits assumed, chain 1 of 2): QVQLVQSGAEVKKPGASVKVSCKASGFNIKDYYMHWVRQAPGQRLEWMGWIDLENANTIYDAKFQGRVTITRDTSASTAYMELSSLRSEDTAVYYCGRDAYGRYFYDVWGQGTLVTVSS
Outline: as §1

[10] = target: T10, ADI-67450; experiment: SPR Carterra avidity, yeast anti-ID, *koff limit
T10 construct: anti-CD3 antibody made in CHO cells, captured by anti-human Fc
Outline: as §1

[11] = target: T11, ADI-74967; experiment: SPR Carterra avidity, yeast anti-ID, *koff limit
T11 construct: pH-dependent anti-CD3 antibody made in CHO cells
Outline: as §1

[12] = target: T12, ADI-26909; experiment: SPR Carterra avidity, yeast anti-ID, *koff limit
T12 construct: anti-CD3 antibody made in CHO cells, captured by anti-human Fc
T12 sequence (VH, as listed by the source limits assumed, chain 1 of 2): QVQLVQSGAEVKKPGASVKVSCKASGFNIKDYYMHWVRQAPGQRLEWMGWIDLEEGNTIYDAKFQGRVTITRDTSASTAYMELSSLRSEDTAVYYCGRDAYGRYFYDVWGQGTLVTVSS
Outline: as §1

[13] = target: T13, ADI-26921 IgG; experiment: SPR Carterra avidity, yeast anti-ID, *koff limit
T13 construct: anti-CD3 IgG
T13 sequence (VH, as listed by the source limits assumed, chain 1 of 2): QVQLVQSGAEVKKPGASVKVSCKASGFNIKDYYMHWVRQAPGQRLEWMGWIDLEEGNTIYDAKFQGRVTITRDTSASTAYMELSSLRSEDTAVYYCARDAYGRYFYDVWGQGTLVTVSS
Outline: as §1

[14] = target: T14, ADI-22523 IgG; experiment: BLI; tip anti-ID IgG, solution ADI-22523 IgG
T14 construct: anti-CD3 IgG
T14 sequence (VH, as listed by the source limits assumed, chain 1 of 2): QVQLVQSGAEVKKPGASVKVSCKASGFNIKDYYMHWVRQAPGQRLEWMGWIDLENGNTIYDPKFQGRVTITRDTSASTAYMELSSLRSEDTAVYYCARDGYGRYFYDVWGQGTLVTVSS
T14 sequence (VL, as listed by the source limits assumed, chain 2 of 2): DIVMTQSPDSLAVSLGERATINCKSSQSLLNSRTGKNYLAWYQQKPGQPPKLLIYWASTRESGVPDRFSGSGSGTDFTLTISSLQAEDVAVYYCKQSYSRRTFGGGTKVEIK
Outline: (§2)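 Bio-layer interferometry with anti-ID IgG loaded on AHC tips. KD (koff/kon) from 1:1 binding model fit; avid format.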

[15] = target: T15, ADI-76358; experiment: SPR Carterra avidity, yeast anti-ID
T15 construct: anti-CD3 antibody made in CHO cells, captured by anti-human Fc
Outline: as §1

[16] = target: T16, ADI-74965; experiment: SPR Carterra avidity, yeast anti-ID
T16 construct: pH-dependent anti-CD3 antibody made in CHO cells
T16 sequence (VH, as listed by the source, chain 1 of 2): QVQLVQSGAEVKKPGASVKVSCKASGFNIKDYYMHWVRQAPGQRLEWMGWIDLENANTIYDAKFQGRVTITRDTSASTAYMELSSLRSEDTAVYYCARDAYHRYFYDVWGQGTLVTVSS
T16 sequence (VL, as listed by the source, chain 2 of 2): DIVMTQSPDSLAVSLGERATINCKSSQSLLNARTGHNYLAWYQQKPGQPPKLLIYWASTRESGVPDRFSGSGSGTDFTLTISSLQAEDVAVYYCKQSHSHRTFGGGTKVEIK
Outline: as §1

[17] = target: T17, ADI-70326; experiment: SPR Carterra avidity, yeast anti-ID
T17 construct: anti-CD3 antibody made in CHO cells, captured by anti-human Fc
T17 sequence (VH, as listed by the source limits assumed, chain 1 of 2): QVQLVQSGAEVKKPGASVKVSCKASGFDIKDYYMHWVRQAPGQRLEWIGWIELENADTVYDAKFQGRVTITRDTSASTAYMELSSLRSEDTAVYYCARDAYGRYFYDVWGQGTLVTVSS
T17 sequence (VL, as listed by the source limits assumed, chain 2 of 2): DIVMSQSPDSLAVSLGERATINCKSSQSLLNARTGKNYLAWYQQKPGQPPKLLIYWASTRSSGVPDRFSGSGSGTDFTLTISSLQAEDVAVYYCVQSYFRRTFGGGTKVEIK
Outline: as §1

[18] = target: T18, CTL-62223; experiment: SPR Carterra avidity, yeast anti-ID
T18 construct: also called mosunetuzumab
Outline: as §1

[19] = target: T19, ADI-26906 IgG; experiment: SPR Carterra avidity, yeast anti-ID
T19 construct: anti-CD3 IgG
T19 sequence (VH, as listed by the source limits assumed, chain 1 of 2): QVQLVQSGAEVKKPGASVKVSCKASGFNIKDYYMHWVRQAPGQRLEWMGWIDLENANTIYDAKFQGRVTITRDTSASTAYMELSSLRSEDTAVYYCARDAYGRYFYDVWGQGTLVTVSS
Outline: as §1

[20] = target: T20, ADI-48650; experiment: SPR Carterra avidity, yeast anti-ID
T20 construct: pH-dependent anti-CD3 antibody made in CHO cells
T20 sequence (VH, as listed by the source, chain 1 of 2): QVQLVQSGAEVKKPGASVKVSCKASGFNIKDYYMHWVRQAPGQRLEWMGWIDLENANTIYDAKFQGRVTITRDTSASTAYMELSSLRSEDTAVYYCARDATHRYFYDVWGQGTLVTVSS
T20 sequence (VL, as listed by the source, chain 2 of 2): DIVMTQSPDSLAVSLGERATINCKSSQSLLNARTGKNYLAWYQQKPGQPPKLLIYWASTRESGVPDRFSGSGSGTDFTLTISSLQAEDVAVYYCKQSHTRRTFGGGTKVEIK
Outline: as §1

[21] = target: T21, ADI-76361; experiment: SPR Carterra avidity, yeast anti-ID
T21 construct: anti-CD3 antibody made in CHO cells, captured by anti-human Fc
Outline: as §1

[22] = target: T22, ADI-26916 IgG; experiment: SPR Carterra avidity, yeast anti-ID
T22 construct: anti-CD3 IgG
T22 sequence (VH, as listed by the source, chain 1 of 2): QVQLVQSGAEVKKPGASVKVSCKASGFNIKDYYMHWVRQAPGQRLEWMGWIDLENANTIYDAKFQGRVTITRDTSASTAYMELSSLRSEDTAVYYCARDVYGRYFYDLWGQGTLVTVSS
Outline: as §1

[23] = target: T23, ADI-76357; experiment: SPR Carterra avidity, yeast anti-ID
T23 construct: anti-CD3 antibody made in CHO cells, captured by anti-human Fc
Outline: as §1

[24] = target: T24, ADI-74968; experiment: SPR Carterra avidity, yeast anti-ID
T24 construct: pH-dependent anti-CD3 antibody made in CHO cells
T24 sequence (VL, as listed by the source, chain 2 of 2): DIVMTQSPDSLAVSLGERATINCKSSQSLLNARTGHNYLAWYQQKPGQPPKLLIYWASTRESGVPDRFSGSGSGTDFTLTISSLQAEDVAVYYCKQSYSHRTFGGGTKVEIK
Outline: as §1

[25] = target: T25, ADI-48587; experiment: SPR Carterra avidity, yeast anti-ID
T25 construct: pH-dependent anti-CD3 antibody made in CHO cells
Outline: as §1

[26] = target: T26, ADI-70327; experiment: SPR Carterra avidity, yeast anti-ID
T26 construct: anti-CD3 antibody made in CHO cells, captured by anti-human Fc
Outline: as §1

[27] = target: T27, ADI-70330; experiment: SPR Carterra avidity, yeast anti-ID
T27 construct: anti-CD3 antibody made in CHO cells, captured by anti-human Fc
T27 sequence (VH, as listed by the source limits assumed, chain 1 of 2): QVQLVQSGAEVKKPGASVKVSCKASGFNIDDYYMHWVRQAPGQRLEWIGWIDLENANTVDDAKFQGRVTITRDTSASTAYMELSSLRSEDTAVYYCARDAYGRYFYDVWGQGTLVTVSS
Outline: as §1

[28] = target: T28, ADI-26919; experiment: SPR Carterra avidity, yeast anti-ID
T28 construct: anti-CD3 antibody made in CHO cells, captured by anti-human Fc
Outline: as §1

[29] = target: T29, ADI-76360; experiment: SPR Carterra avidity, yeast anti-ID
T29 construct: anti-CD3 antibody made in CHO cells, captured by anti-human Fc
Outline: as §1

[30] = target: T30, ADI-48592; experiment: SPR Carterra avidity, yeast anti-ID
T30 construct: pH-dependent anti-CD3 antibody made in CHO cells
Outline: as §1

[31] = target: T31, ADI-50024; experiment: SPR Carterra avidity, yeast anti-ID
T31 construct: anti-CD3 antibody made in CHO cells, captured by anti-human Fc
T31 sequence (VH, as listed by the source limits assumed, chain 1 of 2): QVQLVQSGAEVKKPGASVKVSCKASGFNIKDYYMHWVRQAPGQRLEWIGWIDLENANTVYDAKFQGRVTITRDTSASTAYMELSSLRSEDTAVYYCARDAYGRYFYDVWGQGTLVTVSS
Outline: as §1

[32] = target: T32, ADI-48576; experiment: SPR Carterra avidity, yeast anti-ID
T32 construct: pH-dependent anti-CD3 antibody made in CHO cells
Outline: as §1

[33] = target: T33, ADI-22523 Fab; experiment: BLI; tip anti-ID IgG, solution ADI-22523 Fab
T33 construct: anti-CD3 Fab by papain digestion of the IgG
Outline: as §2

[34] = target: T28, ADI-26919; experiment: SPR Carterra avidity, yeast anti-ID, *koff limit
Outline: as §1

[35] = target: T1, ADI-26943; experiment: SPR Carterra avidity, yeast anti-ID
Outline: as §1

[36] = target: T6, ADI-74966; experiment: SPR Carterra avidity, yeast anti-ID
Outline: as §1

[37] = target: T7, ADI-76359; experiment: SPR Carterra avidity, yeast anti-ID
Outline: as §1

[38] = target: T8, ADI-26913 IgG; experiment: SPR Carterra avidity, yeast anti-ID
Outline: as §1

[39] = target: T15, ADI-76358; experiment: SPR Carterra, yeast anti-ID
Outline: as §1

[40] = target: T34, CTL-62240; experiment: SPR Carterra, yeast anti-ID
T34 construct: also called ONO-4685
Outline: as §1

[41] = target: T35, ADI-26912; experiment: SPR Carterra, yeast anti-ID
T35 construct: anti-CD3 antibody made in CHO cells, captured by anti-human Fc
Outline: as §1

[42] = target: T16, ADI-74965; experiment: SPR Carterra, yeast anti-ID
Outline: as §1

[43] = target: T2, ADI-67445; experiment: SPR Carterra, yeast anti-ID
Outline: as §1

[44] = target: T3, ADI-67447; experiment: SPR Carterra, yeast anti-ID
Outline: as §1

[45] = target: T17, ADI-70326; experiment: SPR Carterra, yeast anti-ID
Outline: as §1

[46] = target: T18, CTL-62223; experiment: SPR Carterra, yeast anti-ID
Outline: as §1

[47] = target: T5, ADI-76362; experiment: SPR Carterra, yeast anti-ID
Outline: as §1

[48] = target: T20, ADI-48650; experiment: SPR Carterra, yeast anti-ID
Outline: as §1

[49] = target: T21, ADI-76361; experiment: SPR Carterra, yeast anti-ID
Outline: as §1

[50] = target: T36, CTL-62228; experiment: SPR Carterra, yeast anti-ID
T36 construct: also called glofitamab
Outline: as §1

[51] = target: T24, ADI-74968; experiment: SPR Carterra, yeast anti-ID
Outline: as §1

[52] = target: T25, ADI-48587; experiment: SPR Carterra, yeast anti-ID
Outline: as §1

[53] = target: T26, ADI-70327; experiment: SPR Carterra, yeast anti-ID
Outline: as §1

[54] = target: T27, ADI-70330; experiment: SPR Carterra, yeast anti-ID
Outline: as §1

[55] = target: T37, ADI-26915; experiment: SPR Carterra, yeast anti-ID
T37 construct: anti-CD3 antibody made in CHO cells, captured by anti-human Fc
Outline: as §1

[56] = target: T29, ADI-76360; experiment: SPR Carterra, yeast anti-ID
Outline: as §1

[57] = target: T38, CTL-62227; experiment: SPR Carterra, yeast anti-ID
T38 construct: also called odronextamab
Outline: as §1

[58] = target: T10, ADI-67450; experiment: SPR Carterra, yeast anti-ID
Outline: as §1

[59] = target: T11, ADI-74967; experiment: SPR Carterra, yeast anti-ID
Outline: as §1

[60] = target: T12, ADI-26909; experiment: SPR Carterra, yeast anti-ID
Outline: as §1

[61] = target: T31, ADI-50024; experiment: SPR Carterra, yeast anti-ID
Outline: as §1

[62] = target: T13, ADI-26921 IgG; experiment: SPR Carterra, yeast anti-ID
Outline: as §1

[63] = target: T32, ADI-48576; experiment: SPR Carterra, yeast anti-ID
Outline: as §1

T1 sequence (VH, as listed by the source, chain 1 of 2): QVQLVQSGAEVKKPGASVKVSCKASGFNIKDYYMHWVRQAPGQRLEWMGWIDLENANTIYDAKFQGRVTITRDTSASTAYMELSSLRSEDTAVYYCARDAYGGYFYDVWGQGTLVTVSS
T1 sequence (VL, as listed by the source, chain 2 of 2): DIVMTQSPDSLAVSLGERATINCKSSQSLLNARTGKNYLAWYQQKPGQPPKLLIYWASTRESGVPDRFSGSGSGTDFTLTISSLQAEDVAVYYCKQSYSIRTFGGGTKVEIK

B1: ADI-34138 (antibody, V domains shown)
VH: QVQLVQSGAEVKKPGSSVKVSCKASGGTFSSYAISWVRQAPGQGLEWMGGIIPIFGTANYAQKFQGRVTITADESTSTAYMELSSLRSEDTAVYYCARGAPNYYGSGGYDDGWFDPWGQGTLVTVSS
VL: EIVMTQSPGTLSLSPGERATLSCRASQSVSSSYLAWYQQKPGQAPRLLIYGASNRATGIPDRFSGSGSGTDFTLTISRLEPEDFAVYYCQQAHTALWTFGGGTKVEIK
notes: anti-ID IgG
Kd [1]: 22 nM | Kd [2]: 27 nM | Kd [3]: 12 nM | Kd [4]: 16 nM | Kd [5]: 17 nM | Kd [6]: 15 nM | Kd [7]: 9.5 nM | Kd [8]: 16 nM | Kd [9]: 10 nM | Kd [10]: 27 nM | Kd [11]: 18 nM | Kd [12]: 12 nM | Kd [13]: 17 nM | Kd [14]: 0.57 nM | Kd [15]: 29 nM | Kd [16]: 34 nM | Kd [17]: 42 nM | Kd [18]: 46 nM | Kd [19]: 20 nM | Kd [20]: 110 nM | Kd [21]: 21 nM | Kd [22]: 64 nM | Kd [23]: 17 nM | Kd [24]: 29 nM | Kd [25]: 29 nM | Kd [26]: 160 nM | Kd [27]: 45 nM | Kd [28]: 33 nM | Kd [29]: 57 nM | binding result [30]: binds | Kd [31]: 19 nM | binding result [32]: binds | Kd [33]: 9.69 nM

B2: ADI-30254 (antibody, V domains shown)
VH: EVQLLESGGGLVQPGGSLRLSCAASGFTFSSYAMSWVRQAPGKGLEWVSTISGSGGSTYYADSVKGRFTISRDNSKNTLYLQMNSLRAEDTAVYYCARLGGRRGSGSSYYYYYGMDVWGQGTTVTVSS
VL: not shown
notes: anti-ID IgG
Kd [4]: 21 nM | Kd [9]: 21 nM | Kd [34]: 33 nM | Kd [14]: 3.34 nM | Kd [35]: 27 nM | binding result [19]: binds | binding result [36]: binds | Kd [37]: 27 nM | Kd [22]: 56 nM | binding result [23]: binds | binding result [38]: binds | binding result [30]: binds | binding result [39]: no binding (tested: up to 200 nM) | binding result [40]: no binding (tested: up to 200 nM) | binding result [41]: no binding (tested: up to 200 nM) | binding result [42]: no binding (tested: up to 200 nM) | binding result [43]: no binding (tested: up to 200 nM) | binding result [44]: no binding (tested: up to 200 nM) | binding result [45]: no binding (tested: up to 200 nM) | binding result [46]: no binding (tested: up to 200 nM) | binding result [47]: no binding (tested: up to 200 nM) | binding result [48]: no binding (tested: up to 200 nM) | binding result [49]: no binding (tested: up to 200 nM) | binding result [50]: no binding (tested: up to 200 nM) | binding result [51]: no binding (tested: up to 200 nM) | binding result [52]: no binding (tested: up to 200 nM) | binding result [53]: no binding (tested: up to 200 nM) | binding result [54]: no binding (tested: up to 200 nM) | binding result [55]: no binding (tested: up to 200 nM) | binding result [56]: no binding (tested: up to 200 nM) | binding result [57]: no binding (tested: up to 200 nM) | binding result [58]: no binding (tested: up to 200 nM) | binding result [59]: no binding (tested: up to 200 nM) | binding result [60]: no binding (tested: up to 200 nM) | binding result [61]: no binding (tested: up to 200 nM) | binding result [62]: no binding (tested: up to 200 nM) | binding result [63]: no binding (tested: up to 200 nM) | Kd [33]: 50.3 nM
